# Results reported in IntAct's records for PubMed 23386062.
# B1: Ras-related protein Rab-9A (Homo sapiens), P51151 (parent)
# chain: MAGKSSLFKVILLGDGGVGKSSLMNRYVTNKFDTQLFHTIGVEFLNKDLEVDGHFVTMQIWDTAGQERFRSLRTPFYRGSDCCLLTFSVDDSQSFQNLSNWKKEFIYYADVKEPESFPFVILGNKIDISERQVSTEEAQAWCRDNGDYPYFETSAKDATNVAAAFEEAVRRVLATEDRSDHLIQTDTVNLHRKPKPSSSCC
# B2: Ras-related protein Rab-4B (Rattus norvegicus (Rat)), P51146 (parent)
# chain: MAETYDFLFKFLVIGSAGTGKSCLLHQFIENKFKQDSNHTIGVEFGSRVVNVGGKTVKLQIWDTAGQERFRSVTRSYYRGAAGALLVYDITSRETYNSLAAWLTDARTLASPNIVVILCGNKKDLDPEREVTFLEASRFAQENELMFLETSALTGENVEEAFLKCARTILNKIDSGELDPERMGSGIQYGDISLRQLRQPRSAQAVAPQPCGC
# Variants of: B1
# Conditions: with nisch_human NISCH
row,Variant,effect of a mutation on the interaction
1,MAGKSSLFKVILLGDGGVGKDSLMNRYVTNKFDTQLFHTIGVEFLNKDLEVDGHFVTMQIWDTAGQERFRSLRTPFYRGSDCCLLTFSVDDSQSFQNLSNWKKEFIYYADVKEPESFPFVILGNKIDISERQVSTEEAQAWCRDNGDYPYFETSAKDATNVAAAFEEAVRRVLATEDRSDHLIQTDTVNLHRKPKPSSSCC [S21D],disrupting interaction

# Variants of: B2
# Conditions: with nisch_human NISCH
row,Variant,effect of a mutation on the interaction
1,MAETYDFLFKFLVIGSAGTGKNCLLHQFIENKFKQDSNHTIGVEFGSRVVNVGGKTVKLQIWDTAGQERFRSVTRSYYRGAAGALLVYDITSRETYNSLAAWLTDARTLASPNIVVILCGNKKDLDPEREVTFLEASRFAQENELMFLETSALTGENVEEAFLKCARTILNKIDSGELDPERMGSGIQYGDISLRQLRQPRSAQAVAPQPCGC [S22N],disrupting interaction
